Experimental data from patent EP4703388A1 (Jiangsu Hengrui Pharmaceuticals Co., Ltd., dated 2024).
Blank lines part the entries; values can stand above or below the binder they belong to.

How the values were obtained:
[1] = biological target: T1, human tissue factor (TF) on MDA-MB-231, NCI-H358 and HCT116 cells (human, UniProt P13726 33-295); test: flow cytometry on H358 cells
T1 construct: whole, on cells; also called TF antigen; CD142

[2] = biological target: T1, human tissue factor (TF) on MDA-MB-231, …; test: flow cytometry on MDA-MB-231 cells
[3] = biological target: T2, human TF ECD-His (hTF-his) (human, UniProt P13726 33-251); test: SPR Biacore T200, antibody on Protein A chip, TF-His as analyte, 1:1 model
T2 construct: also called bio-hTF-his; human TF-His protein

[4] = biological target: T3, cyno TF ECD-His (cTF-his) (monkey (cyno)); test: as above
T3 construct: also called bio-cTF-his; monkey TF-His protein
T3 chain: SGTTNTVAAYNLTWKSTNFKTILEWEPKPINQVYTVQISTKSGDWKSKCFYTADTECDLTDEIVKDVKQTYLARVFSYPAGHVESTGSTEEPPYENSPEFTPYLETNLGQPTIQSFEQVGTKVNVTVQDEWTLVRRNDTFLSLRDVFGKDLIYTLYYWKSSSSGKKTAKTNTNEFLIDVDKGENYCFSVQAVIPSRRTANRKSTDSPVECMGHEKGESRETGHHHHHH

[5] = biological target: T1, human tissue factor (TF) on MDA-MB-231, …; test: cell-based or functional assay
[6] = biological target: T1, human tissue factor (TF) on MDA-MB-231, …; test: cell-based or functional assay; remark: listed apart in the source
[7] = biological target: T1, human tissue factor (TF) on MDA-MB-231, …; test: flow cytometry on HCT116 cells
[8] = biological target: T4, HuRatTF, human-rat hybrid TF antigen (human-rat hybrid); test: ELISA, HuRatTF coated, antibody titrated
T4 construct: also called HuRatTF protein; human-rat hybrid TF protein
T4 chain: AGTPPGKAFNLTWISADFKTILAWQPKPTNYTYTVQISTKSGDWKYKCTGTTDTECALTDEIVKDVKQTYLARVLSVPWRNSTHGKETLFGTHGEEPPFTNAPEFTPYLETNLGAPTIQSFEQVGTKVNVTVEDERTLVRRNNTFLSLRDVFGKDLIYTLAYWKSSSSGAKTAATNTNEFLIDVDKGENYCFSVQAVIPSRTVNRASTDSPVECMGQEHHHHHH

[9] = biological target: T5, mouse TF ECD-His (mouse, UniProt P20352 29-251); test: ELISA, TF-His coated at 4 µg/mL, antibody titrated
T5 construct: also called Mouse TF-His protein; mouse TF antigen protein
T5 sequence: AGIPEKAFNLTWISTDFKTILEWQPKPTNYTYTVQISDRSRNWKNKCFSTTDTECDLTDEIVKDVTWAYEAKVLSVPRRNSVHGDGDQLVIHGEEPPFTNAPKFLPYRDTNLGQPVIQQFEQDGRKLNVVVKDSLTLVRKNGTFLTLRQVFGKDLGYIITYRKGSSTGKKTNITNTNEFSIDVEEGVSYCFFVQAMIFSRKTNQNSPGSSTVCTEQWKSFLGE

[10] = biological target: T6, rat TF ECD-His (rat, UniProt P42533 29-252); test: ELISA, TF-His coated at 4 µg/mL, antibody titrated
T6 construct: also called rat TF-His protein; rat TF antigen protein
T6 sequence: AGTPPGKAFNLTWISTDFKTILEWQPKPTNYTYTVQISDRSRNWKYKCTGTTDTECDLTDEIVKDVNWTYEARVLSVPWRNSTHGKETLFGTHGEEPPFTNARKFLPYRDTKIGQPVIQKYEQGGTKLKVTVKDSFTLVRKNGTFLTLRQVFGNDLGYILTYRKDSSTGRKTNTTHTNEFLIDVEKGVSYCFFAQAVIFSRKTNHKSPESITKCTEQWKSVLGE

[11] = biological target: T2, human TF ECD-His (hTF-his); test: ELISA, antibody captured by anti-human IgG, biotinylated TF-his titrated
[12] = biological target: T3, cyno TF ECD-His (cTF-his); test: as above

B1: hu67-14 (antibody, human IgG1, kappa, V domains shown)
VH: EVTLKQSGPVLVKPTQTLTLTCTVSGFSLTNYGVNWIRQPPRKGLEWLGVIWSRGNTDYNAAFISRLTISKDNSKSQVVLKMTNMDPVDTATYYCARKDAVVATDALDYWGQGTTVTVSS
VL: DIQMTQSHKFLSASVGDRVTITCKASQDVSTAVAWYQQKPGKSPKLLIYSTSYRYTGVPSRFSGSGSGTDFTFTISSLQPEDIATYYCQQHYSTPYTFGGGTKVEIKR
EC50 [1]: 107 nM
EC50 [2]: 18.9 nM
Kd [3]: 20.1 nM
koff [3]: 0.000624 s⁻¹
kon [3]: 31000 M⁻¹ s⁻¹
Kd [4]: 12.9 nM
koff [4]: 0.000399 s⁻¹
kon [4]: 31000 M⁻¹ s⁻¹

B4: hu10H10-77 (antibody, V domains shown)
VH: EVQLVQSGSELKKPGASVKVSCKASGYTFITYWIEWVKQRPGQGLEWMGDILPYSGSTNYNENFKGRATFSADTSVSTAYLQISSLKAEDTAVYYCARSGYYGNSGFAYWGQGTLVTVSS
VL: DIQMTQSPSSLSASVGDRVTITCQSSQSLLSSGNQKNYLTWYQQKPGKAPKLLIYWASTRESGVPSRFSGSGSGTDFTLTISSLQPEDFATYYCQNDYTYPLTFGQGTKLEIK
notes: H11+L9; Full-length IgG
Inhibition rate (%), Factor-VII-Human Chromogenic-Activity blood coagulation pathway assay (FVIIa, MDA-MB-231 cells, FX; antibody 20 µg/mL) [5]: -1.8%
EC50 (nM), IL8 assay (IL-8 of MDA-MB-231 cells after antibody and FVIIa) [6]: 0.412 nM
EC50 [1]: 0.68 nM
EC50 [7]: 0.47 nM
EC50 [2]: 1.64 nM
EC50 [8]: 2 nM
Maximum (OD450 nm) [8]: 1.39 OD450 nm
binding result [9]: no binding
binding result [10]: no binding
EC50 [11]: 0.0035 µg/mL
Emax [11]: 1
EC50 [12]: 0.0027 µg/mL
Emax [12]: 1.13
Kd [3]: 0.749 nM
koff [3]: 0.00011 s⁻¹
kon [3]: 146000 M⁻¹ s⁻¹
Kd [4]: 0.677 nM
koff [4]: 0.000114 s⁻¹
kon [4]: 169000 M⁻¹ s⁻¹

Now from value to binder:

Inhibition rate (%), Factor-VII-Human Chromogenic-Activity blood coagulation pathway assay (FVIIa, MDA-MB-231 cells, FX; antibody 20 µg/mL) [5]: -2.8%
EC50 (nM), IL8 assay (IL-8 of MDA-MB-231 cells after antibody and FVIIa) [6]: 0.407 nM
EC50 [1]: 0.67 nM
EC50 [7]: 0.34 nM
EC50 [2]: 1.32 nM
EC50 [8]: 2.13 nM
Maximum (OD450 nm) [8]: 0.428 OD450 nm
binding result [9]: no binding
binding result [10]: no binding
EC50 [11]: 0.0529 µg/mL
Emax [11]: 0.92
EC50 [12]: 0.041 µg/mL
Emax [12]: 0.92
Kd [3]: 18.5 nM
koff [3]: 0.00699 s⁻¹
kon [3]: 378000 M⁻¹ s⁻¹
Kd [4]: 19.2 nM
koff [4]: 0.00637 s⁻¹
kon [4]: 332000 M⁻¹ s⁻¹
B2: hu310-2 (antibody, human IgG1, kappa, V domains shown)
VH: EVQLVQSGAEVKKPGASVKVSCKASGYSFTGYYMNWVRQAPGQGLEWMGEINPSTGGSTYNQKFKARVTMTVDQSTSTVYMELSSLRSEDTAVYYCARRELGGPFGYWGQGTTVTVSS
VL: SIVMTQSPDSLAVSLGERATINCKASQSVSNGIAWYQQKPGQSPKLLIYFASNRYTGVPDRFSGSGYGTDFTLTISSLQAEDVAVYYCQQDYSSPWTFGGGTKVEIKR

Inhibition rate (%), Factor-VII-Human Chromogenic-Activity blood coagulation pathway assay (FVIIa, MDA-MB-231 cells, FX; antibody 20 µg/mL) [5]: 4%
EC50 (nM), IL8 assay (IL-8 of MDA-MB-231 cells after antibody and FVIIa) [6]: 1.57 nM
EC50 [1]: 5.42 nM
EC50 [7]: 1.66 nM
EC50 [2]: 4.91 nM
EC50 [8]: 53.4 nM
Maximum (OD450 nm) [8]: 0.292 OD450 nm
binding result [9]: no binding
binding result [10]: no binding
EC50 [11]: 0.103 µg/mL
Emax [11]: 0.89
EC50 [12]: 0.0691 µg/mL
Emax [12]: 1.17
Kd [3]: 39.4 nM
koff [3]: 0.00263 s⁻¹
kon [3]: 66700 M⁻¹ s⁻¹
Kd [4]: 27.1 nM
koff [4]: 0.000947 s⁻¹
kon [4]: 35000 M⁻¹ s⁻¹
B3: hu67Y116 (antibody, human IgG1, kappa, V domains shown)
VH: EVQLQESGPGLVKPSQTLSLTCTVSGFSLTNYGVNWIRQSPGKGLEWIGVIWSRGNTDYNAAFKSRVTISKDTSKNQVSLKLSSVTAADTAVYYCARKDAIVATDALDYWGQGTTVTVSS
VL: DIQMTQSPSSLSASVGDRVTITCKASQDVQTAVAWYQQKPGKAPKLLIYSTHYRYTGVPSRFSGSGSGTDFTFTISSLQPEDIATYYCLQSYTLPFSFGGGTKVEIKR
